# B1: SLC2A7, Q6PXP3 (peptide)
# chain: TASPAKETSF
# Target: T1, DLG3_2, Q92796
# T1 sequence (Q92796 221-321, limits assumed, looked up): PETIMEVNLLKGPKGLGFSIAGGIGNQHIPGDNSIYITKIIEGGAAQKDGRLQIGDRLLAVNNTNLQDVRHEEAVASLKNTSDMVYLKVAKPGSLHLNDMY
# Experiment: holdup assay
# Parameters: key: below the threshold = too weak to quantify, mostly under pKd 3.1 to 4
# Conditions: plain residues with an end cap or a label only (N-terminal biotin on a linker: ado-ado)
row,Binder,pKd
1,B1,4.25

# Target: GRASP, Q7Z6J2
# Sequence (Q7Z6J2 96-193): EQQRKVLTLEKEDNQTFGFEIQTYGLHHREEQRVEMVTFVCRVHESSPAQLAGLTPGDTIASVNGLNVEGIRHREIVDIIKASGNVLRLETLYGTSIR
# Experiment: holdup assay
# Parameters: key: below the threshold = too weak to quantify, mostly under pKd 3.1 to 4
# Conditions: plain residues with an end cap or a label only (N-terminal biotin on a linker: ado-ado)
row,Binder,pKd
1,B1,below the threshold

# Target: MAGI1_2, Q96QZ7
# Sequence (Q96QZ7 456-580): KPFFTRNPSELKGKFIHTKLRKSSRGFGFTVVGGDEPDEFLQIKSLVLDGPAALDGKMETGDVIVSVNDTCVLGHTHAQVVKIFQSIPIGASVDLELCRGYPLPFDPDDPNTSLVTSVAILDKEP
# Experiment: holdup assay
# Parameters: key: below the threshold = too weak to quantify, mostly under pKd 3.1 to 4
# Conditions: plain residues with an end cap or a label only (N-terminal biotin on a linker: ado-ado)
row,Binder,pKd
1,B1,below the threshold

# Target: MAGI2_2, Q86UL8
# Sequence (Q86UL8 410-522): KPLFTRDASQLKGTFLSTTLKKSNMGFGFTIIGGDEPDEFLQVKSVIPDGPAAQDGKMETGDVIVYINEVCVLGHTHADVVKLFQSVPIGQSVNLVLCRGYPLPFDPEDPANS
# Experiment: holdup assay
# Parameters: key: below the threshold = too weak to quantify, mostly under pKd 3.1 to 4
# Conditions: plain residues with an end cap or a label only (N-terminal biotin on a linker: ado-ado)
row,Binder,pKd
1,B1,below the threshold

# Target: T2, MPP6, Q9NZW5
# T2 sequence (Q9NZW5 125-219, limits assumed, looked up): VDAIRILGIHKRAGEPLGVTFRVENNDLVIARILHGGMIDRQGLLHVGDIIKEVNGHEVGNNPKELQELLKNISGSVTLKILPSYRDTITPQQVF
# Experiment: holdup assay
# Parameters: key: below the threshold = too weak to quantify, mostly under pKd 3.1 to 4
# Conditions: plain residues with an end cap or a label only (N-terminal biotin on a linker: ado-ado)
row,Binder,pKd
1,B1,below the threshold

# Target: T3, GRIP1_5, Q9Y3R0
# T3 sequence (Q9Y3R0 568-668, limits assumed, looked up): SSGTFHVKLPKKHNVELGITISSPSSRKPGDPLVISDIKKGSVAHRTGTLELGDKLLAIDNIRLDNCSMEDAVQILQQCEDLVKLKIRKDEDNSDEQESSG
# Experiment: holdup assay
# Parameters: key: below the threshold = too weak to quantify, mostly under pKd 3.1 to 4
# Conditions: plain residues with an end cap or a label only (N-terminal biotin on a linker: ado-ado)
row,Binder,pKd
1,B1,below the threshold

# Target: T4, RADIL, Q96JH8
# T4 sequence (Q96JH8 971-1071, limits assumed, looked up): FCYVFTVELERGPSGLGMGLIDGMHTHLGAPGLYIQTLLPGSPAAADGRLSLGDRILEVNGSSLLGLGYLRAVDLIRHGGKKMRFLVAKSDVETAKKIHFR
# Experiment: holdup assay
# Parameters: key: below the threshold = too weak to quantify, mostly under pKd 3.1 to 4
# Conditions: plain residues with an end cap or a label only (N-terminal biotin on a linker: ado-ado)
row,Binder,pKd
1,B1,below the threshold

# Target: GORASP2, Q9H8Y8
# Experiment: holdup assay
# Parameters: key: below the threshold = too weak to quantify, mostly under pKd 3.1 to 4
# Conditions: plain residues with an end cap or a label only (N-terminal biotin on a linker: ado-ado)
row,Binder,pKd
1,B1,below the threshold

# Target: DLG4_3, P78352
# Sequence (P78352 306-403): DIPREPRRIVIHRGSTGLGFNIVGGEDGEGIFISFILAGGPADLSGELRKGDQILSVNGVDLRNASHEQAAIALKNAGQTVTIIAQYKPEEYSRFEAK
# Experiment: holdup assay
# Parameters: key: below the threshold = too weak to quantify, mostly under pKd 3.1 to 4
# Conditions: plain residues with an end cap or a label only (N-terminal biotin on a linker: ado-ado)
row,Binder,pKd
1,B1,below the threshold

# Target: SCRIB_2, Q14160
# Sequence (Q14160 857-960): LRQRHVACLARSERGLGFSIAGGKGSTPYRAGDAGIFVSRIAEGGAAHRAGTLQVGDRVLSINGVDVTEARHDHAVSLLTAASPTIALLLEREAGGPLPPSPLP
# Experiment: holdup assay
# Parameters: key: below the threshold = too weak to quantify, mostly under pKd 3.1 to 4
# Conditions: plain residues with an end cap or a label only (N-terminal biotin on a linker: ado-ado)
row,Binder,pKd
1,B1,4.12

# Target: T5, LIN7A, O14910
# T5 sequence (O14910 103-200, limits assumed, looked up): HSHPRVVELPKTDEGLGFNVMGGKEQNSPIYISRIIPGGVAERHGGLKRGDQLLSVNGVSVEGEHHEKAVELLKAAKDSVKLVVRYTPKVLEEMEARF
# Experiment: holdup assay
# Parameters: key: below the threshold = too weak to quantify, mostly under pKd 3.1 to 4
# Conditions: plain residues with an end cap or a label only (N-terminal biotin on a linker: ado-ado)
row,Binder,pKd
1,B1,3.77

# Target: T6, SIPA1L2, Q9P2F8
# T6 sequence (Q9P2F8 945-1036, limits assumed, looked up): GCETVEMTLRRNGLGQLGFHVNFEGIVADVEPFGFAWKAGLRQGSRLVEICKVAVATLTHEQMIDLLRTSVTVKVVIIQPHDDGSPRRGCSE
# Experiment: holdup assay
# Parameters: key: below the threshold = too weak to quantify, mostly under pKd 3.1 to 4
# Conditions: plain residues with an end cap or a label only (N-terminal biotin on a linker: ado-ado)
row,Binder,pKd
1,B1,below the threshold

# Target: GOPC, Q9HD26
# Experiment: holdup assay
# Parameters: key: below the threshold = too weak to quantify, mostly under pKd 3.1 to 4
# Conditions: plain residues with an end cap or a label only (N-terminal biotin on a linker: ado-ado)
row,Binder,pKd
1,B1,below the threshold

# Target: TJP2_1, Q9UDY2
# Sequence (Q9UDY2 24-128): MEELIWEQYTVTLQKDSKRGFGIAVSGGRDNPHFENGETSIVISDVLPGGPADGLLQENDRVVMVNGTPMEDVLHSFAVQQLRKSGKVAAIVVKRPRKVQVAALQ
# Experiment: holdup assay
# Parameters: key: below the threshold = too weak to quantify, mostly under pKd 3.1 to 4
# Conditions: plain residues with an end cap or a label only (N-terminal biotin on a linker: ado-ado)
row,Binder,pKd
1,B1,below the threshold

# Target: LDB3, O75112
# Sequence (O75112 1-94): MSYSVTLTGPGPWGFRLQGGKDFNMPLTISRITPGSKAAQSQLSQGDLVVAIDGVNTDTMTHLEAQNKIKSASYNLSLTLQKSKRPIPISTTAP
# Experiment: holdup assay
# Parameters: key: below the threshold = too weak to quantify, mostly under pKd 3.1 to 4
# Conditions: plain residues with an end cap or a label only (N-terminal biotin on a linker: ado-ado)
row,Binder,pKd
1,B1,3.65

# Target: T7, ARHGEF11, O15085
# T7 sequence (O15085 42-136, limits assumed, looked up): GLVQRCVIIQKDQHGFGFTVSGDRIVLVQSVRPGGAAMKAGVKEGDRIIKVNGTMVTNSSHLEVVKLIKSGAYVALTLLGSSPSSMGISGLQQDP
# Experiment: holdup assay
# Parameters: key: below the threshold = too weak to quantify, mostly under pKd 3.1 to 4
# Conditions: plain residues with an end cap or a label only (N-terminal biotin on a linker: ado-ado)
row,Binder,pKd
1,B1,below the threshold

# Target: T8, SHANK1, Q9Y566
# T8 sequence (Q9Y566 658-767, limits assumed, looked up): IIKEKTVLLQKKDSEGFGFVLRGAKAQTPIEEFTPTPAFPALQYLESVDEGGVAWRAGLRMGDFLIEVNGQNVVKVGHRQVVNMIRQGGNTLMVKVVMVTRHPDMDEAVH
# Experiment: holdup assay
# Parameters: key: below the threshold = too weak to quantify, mostly under pKd 3.1 to 4
# Conditions: plain residues with an end cap or a label only (N-terminal biotin on a linker: ado-ado)
row,Binder,pKd
1,B1,below the threshold

# Target: SCRIB_3, Q14160
# Sequence (Q14160 999-1103): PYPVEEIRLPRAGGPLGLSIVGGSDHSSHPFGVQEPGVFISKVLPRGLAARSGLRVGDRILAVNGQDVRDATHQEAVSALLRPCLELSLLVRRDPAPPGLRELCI
# Experiment: holdup assay
# Parameters: key: below the threshold = too weak to quantify, mostly under pKd 3.1 to 4
# Conditions: plain residues with an end cap or a label only (N-terminal biotin on a linker: ado-ado)
row,Binder,pKd
1,B1,5.14

# Target: MAGI3_2, Q5TCQ9
# Sequence (Q5TCQ9 398-503): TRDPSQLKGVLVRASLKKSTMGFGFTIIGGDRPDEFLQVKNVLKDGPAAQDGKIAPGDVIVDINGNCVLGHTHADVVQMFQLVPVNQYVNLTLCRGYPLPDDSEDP
# Experiment: holdup assay
# Parameters: key: below the threshold = too weak to quantify, mostly under pKd 3.1 to 4
# Conditions: plain residues with an end cap or a label only (N-terminal biotin on a linker: ado-ado)
row,Binder,pKd
1,B1,below the threshold

# Target: DLG1_3, Q12959
# Experiment: holdup assay
# Parameters: key: below the threshold = too weak to quantify, mostly under pKd 3.1 to 4
# Conditions: plain residues with an end cap or a label only (N-terminal biotin on a linker: ado-ado)
row,Binder,pKd
1,B1,below the threshold

# Target: TJP1_2, Q07157
# Sequence (Q07157 181-274): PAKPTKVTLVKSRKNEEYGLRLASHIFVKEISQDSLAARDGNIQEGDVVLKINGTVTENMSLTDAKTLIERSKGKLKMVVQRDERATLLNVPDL
# Experiment: holdup assay
# Parameters: key: below the threshold = too weak to quantify, mostly under pKd 3.1 to 4
# Conditions: plain residues with an end cap or a label only (N-terminal biotin on a linker: ado-ado)
row,Binder,pKd
1,B1,below the threshold

# Target: DLG1_1, Q12959
# Experiment: holdup assay
# Parameters: key: below the threshold = too weak to quantify, mostly under pKd 3.1 to 4
# Conditions: plain residues with an end cap or a label only (N-terminal biotin on a linker: ado-ado)
row,Binder,pKd
1,B1,below the threshold

# Target: FRMPD3, Q5JV73
# Sequence (Q5JV73 12-100): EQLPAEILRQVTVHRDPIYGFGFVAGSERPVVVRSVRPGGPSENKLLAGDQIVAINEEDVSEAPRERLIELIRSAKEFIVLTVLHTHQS
# Experiment: holdup assay
# Parameters: key: below the threshold = too weak to quantify, mostly under pKd 3.1 to 4
# Conditions: plain residues with an end cap or a label only (N-terminal biotin on a linker: ado-ado)
row,Binder,pKd
1,B1,below the threshold

# Target: T9, DLG3_1, Q92796
# T9 sequence (Q92796 125-227, limits assumed, looked up): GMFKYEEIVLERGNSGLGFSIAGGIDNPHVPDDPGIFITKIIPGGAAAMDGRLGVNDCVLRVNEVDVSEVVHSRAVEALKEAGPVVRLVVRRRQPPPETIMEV
# Experiment: holdup assay
# Parameters: key: below the threshold = too weak to quantify, mostly under pKd 3.1 to 4
# Conditions: plain residues with an end cap or a label only (N-terminal biotin on a linker: ado-ado)
row,Binder,pKd
1,B1,below the threshold

# Target: AHNAK1, Q09666
# Sequence (Q09666 4-100): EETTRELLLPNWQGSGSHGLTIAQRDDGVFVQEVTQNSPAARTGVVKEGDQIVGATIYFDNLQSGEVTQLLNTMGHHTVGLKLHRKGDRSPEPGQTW
# Experiment: holdup assay
# Parameters: key: below the threshold = too weak to quantify, mostly under pKd 3.1 to 4
# Conditions: plain residues with an end cap or a label only (N-terminal biotin on a linker: ado-ado)
row,Binder,pKd
1,B1,below the threshold

# Target: PDLIM1, O00151
# Sequence (O00151 1-87): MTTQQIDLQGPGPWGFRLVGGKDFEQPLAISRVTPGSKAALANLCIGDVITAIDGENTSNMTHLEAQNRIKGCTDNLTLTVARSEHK
# Experiment: holdup assay
# Parameters: key: below the threshold = too weak to quantify, mostly under pKd 3.1 to 4
# Conditions: plain residues with an end cap or a label only (N-terminal biotin on a linker: ado-ado)
row,Binder,pKd
1,B1,below the threshold

# Target: IL16_1, Q14005
# Sequence (Q14005 210-306): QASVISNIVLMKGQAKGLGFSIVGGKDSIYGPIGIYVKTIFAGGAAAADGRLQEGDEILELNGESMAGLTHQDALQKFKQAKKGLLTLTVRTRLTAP
# Experiment: holdup assay
# Parameters: key: below the threshold = too weak to quantify, mostly under pKd 3.1 to 4
# Conditions: plain residues with an end cap or a label only (N-terminal biotin on a linker: ado-ado)
row,Binder,pKd
1,B1,below the threshold

# Target: DLG4_2, P78352
# Sequence (P78352 155-259): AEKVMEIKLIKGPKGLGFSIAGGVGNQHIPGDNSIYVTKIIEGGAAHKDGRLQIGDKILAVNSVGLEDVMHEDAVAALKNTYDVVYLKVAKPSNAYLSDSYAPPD
# Experiment: holdup assay
# Parameters: key: below the threshold = too weak to quantify, mostly under pKd 3.1 to 4
# Conditions: plain residues with an end cap or a label only (N-terminal biotin on a linker: ado-ado)
row,Binder,pKd
1,B1,4.11

# Source: paper PMC9482650, “Quantitative fragmentomics allow affinity mapping of interactomes” (Nature Communications, 2022)
